# Source: patent publication US20230048960A1 (University of Washington, published 2023)
# Square brackets hold non-standard residues; d marks the D form.
# T1: islet amyloid polypeptide (IAPP) (UniProt P10997 34-70, limits assumed)
# T1 peptide (looked up): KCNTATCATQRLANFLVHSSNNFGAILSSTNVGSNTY
# B1: AP090 (peptide)
# peptide: Ac-RGE[dM]N[dL]S[dW]MNEYSGW[dT]M[dN]L[dK]MGR-NH2
# SMILES: CSCC[C@H](NC(=O)[C@@H](CCCCN)NC(=O)[C@H](CC(C)C)NC(=O)[C@@H](CC(N)=O)NC(=O)[C@H](CCSC)NC(=O)[C@H](NC(=O)[C@H](Cc1c[nH]c2ccccc12)NC(=O)CNC(=O)[C@H](CO)NC(=O)[C@H](Cc1ccc(O)cc1)NC(=O)[C@H](CCC(=O)O)NC(=O)[C@H](CC(N)=O)NC(=O)[C@H](CCSC)NC(=O)[C@@H](Cc1c[nH]c2ccccc12)NC(=O)[C@H](CO)NC(=O)[C@@H](CC(C)C)NC(=O)[C@H](CC(N)=O)NC(=O)[C@@H](CCSC)NC(=O)[C@H](CCC(=O)O)NC(=O)CNC(=O)[C@H](CCCNC(=N)N)NC(C)=O)[C@H](C)O)C(=O)NCC(=O)N[C@@H](CCCNC(=N)N)C(N)=O
# B2: AP524m (peptide)
# peptide: Ac-RCE[dM]N[dL]S[dW]M[dN][dE][dY][dY]GW[dT]M[dN]M[dK]MGR-NH2
# SMILES: CSCC[C@H](NC(=O)[C@@H](CCCCN)NC(=O)[C@H](CCSC)NC(=O)[C@@H](CC(N)=O)NC(=O)[C@H](CCSC)NC(=O)[C@H](NC(=O)[C@H](Cc1c[nH]c2ccccc12)NC(=O)CNC(=O)[C@@H](Cc1ccc(O)cc1)NC(=O)[C@@H](Cc1ccc(O)cc1)NC(=O)[C@@H](CCC(=O)O)NC(=O)[C@@H](CC(N)=O)NC(=O)[C@H](CCSC)NC(=O)[C@@H](Cc1c[nH]c2ccccc12)NC(=O)[C@H](CO)NC(=O)[C@@H](CC(C)C)NC(=O)[C@H](CC(N)=O)NC(=O)[C@@H](CCSC)NC(=O)[C@H](CCC(=O)O)NC(=O)[C@H](CS)NC(=O)[C@H](CCCNC(=N)N)NC(C)=O)[C@H](C)O)C(=O)NCC(=O)N[C@@H](CCCNC(=N)N)C(N)=O
# B3: AP527d (peptide)
# peptide: Ac-[dR]G[dE]M[dN]L[dS]W[dM][dN][dE][dY][dY]G[dW]T[dM]N[dM]K[dC]G[dR]-NH2
# modifications: also: homodimer: D-Cys21 disulfide-bonded to D-Cys21 of other copy
# B4: AP525d (peptide)
# peptide: Ac-RGE[dM]N[dL]S[dW]M[dN][dE][dY][dY]GW[dT]M[dN]M[dK]CGR-NH2
# modifications: also: homodimer: Cys21 disulfide-bonded to Cys21 of other copy
# B5: AP523d (peptide)
# peptide: Ac-RGE[dC]N[dL]S[dW]M[dN][dE][dY][dY]GW[dT]M[dN]M[dK]MGR-NH2
# modifications: also: disulfide-linked homodimer (Cys4 to Cys4 of other copy), disulfide at 4, other end not in the chain
# B6: AP523m (peptide)
# peptide: Ac-RGE[dC]N[dL]S[dW]M[dN][dE][dY][dY]GW[dT]M[dN]M[dK]MGR-NH2
# SMILES: CSCC[C@H](NC(=O)[C@@H](CCCCN)NC(=O)[C@H](CCSC)NC(=O)[C@@H](CC(N)=O)NC(=O)[C@H](CCSC)NC(=O)[C@H](NC(=O)[C@H](Cc1c[nH]c2ccccc12)NC(=O)CNC(=O)[C@@H](Cc1ccc(O)cc1)NC(=O)[C@@H](Cc1ccc(O)cc1)NC(=O)[C@@H](CCC(=O)O)NC(=O)[C@@H](CC(N)=O)NC(=O)[C@H](CCSC)NC(=O)[C@@H](Cc1c[nH]c2ccccc12)NC(=O)[C@H](CO)NC(=O)[C@@H](CC(C)C)NC(=O)[C@H](CC(N)=O)NC(=O)[C@@H](CS)NC(=O)[C@H](CCC(=O)O)NC(=O)CNC(=O)[C@H](CCCNC(=N)N)NC(C)=O)[C@H](C)O)C(=O)NCC(=O)N[C@@H](CCCNC(=N)N)C(N)=O
# B7: AP525m (peptide)
# peptide: Ac-RGE[dM]N[dL]S[dW]M[dN][dE][dY][dY]GW[dT]M[dN]M[dK]CGR-NH2
# SMILES: CSCC[C@H](NC(=O)[C@@H](CC(N)=O)NC(=O)[C@H](CCSC)NC(=O)[C@H](NC(=O)[C@H](Cc1c[nH]c2ccccc12)NC(=O)CNC(=O)[C@@H](Cc1ccc(O)cc1)NC(=O)[C@@H](Cc1ccc(O)cc1)NC(=O)[C@@H](CCC(=O)O)NC(=O)[C@@H](CC(N)=O)NC(=O)[C@H](CCSC)NC(=O)[C@@H](Cc1c[nH]c2ccccc12)NC(=O)[C@H](CO)NC(=O)[C@@H](CC(C)C)NC(=O)[C@H](CC(N)=O)NC(=O)[C@@H](CCSC)NC(=O)[C@H](CCC(=O)O)NC(=O)CNC(=O)[C@H](CCCNC(=N)N)NC(C)=O)[C@H](C)O)C(=O)N[C@H](CCCCN)C(=O)N[C@@H](CS)C(=O)NCC(=O)N[C@@H](CCCNC(=N)N)C(N)=O
# B8: AP526m (peptide)
# peptide: Ac-[dR]G[dE]M[dN]L[dS]W[dM][dN][dE][dY][dS]G[dW]T[dM]N[dC]K[dM]G[dR]-NH2
# SMILES: CSCC[C@H](NC(=O)[C@@H](CCC(=O)O)NC(=O)CNC(=O)[C@@H](CCCNC(=N)N)NC(C)=O)C(=O)N[C@H](CC(N)=O)C(=O)N[C@@H](CC(C)C)C(=O)N[C@H](CO)C(=O)N[C@@H](Cc1c[nH]c2ccccc12)C(=O)N[C@H](CCSC)C(=O)N[C@H](CC(N)=O)C(=O)N[C@H](CCC(=O)O)C(=O)N[C@H](Cc1ccc(O)cc1)C(=O)N[C@H](CO)C(=O)NCC(=O)N[C@H](Cc1c[nH]c2ccccc12)C(=O)N[C@H](C(=O)N[C@H](CCSC)C(=O)N[C@@H](CC(N)=O)C(=O)N[C@H](CS)C(=O)N[C@@H](CCCCN)C(=O)N[C@H](CCSC)C(=O)NCC(=O)N[C@H](CCCNC(=N)N)C(N)=O)[C@@H](C)O
# B9: AP527m (peptide)
# peptide: Ac-[dR]G[dE]M[dN]L[dS]W[dM][dN][dE][dY][dY]G[dW]T[dM]N[dM]K[dC]G[dR]-NH2
# SMILES: CSCC[C@H](NC(=O)[C@@H](CCC(=O)O)NC(=O)CNC(=O)[C@@H](CCCNC(=N)N)NC(C)=O)C(=O)N[C@H](CC(N)=O)C(=O)N[C@@H](CC(C)C)C(=O)N[C@H](CO)C(=O)N[C@@H](Cc1c[nH]c2ccccc12)C(=O)N[C@H](CCSC)C(=O)N[C@H](CC(N)=O)C(=O)N[C@H](CCC(=O)O)C(=O)N[C@H](Cc1ccc(O)cc1)C(=O)N[C@H](Cc1ccc(O)cc1)C(=O)NCC(=O)N[C@H](Cc1c[nH]c2ccccc12)C(=O)N[C@H](C(=O)N[C@H](CCSC)C(=O)N[C@@H](CC(N)=O)C(=O)N[C@H](CCSC)C(=O)N[C@@H](CCCCN)C(=O)N[C@H](CS)C(=O)NCC(=O)N[C@H](CCCNC(=N)N)C(N)=O)[C@@H](C)O
# B10: AP524d (peptide)
# peptide: Ac-RCE[dM]N[dL]S[dW]M[dN][dE][dY][dY]GW[dT]M[dN]M[dK]MGR-NH2
# modifications: also: disulfide-linked homodimer via Cys2
# B11: AP527d (BMOE) (peptide)
# peptide: Ac-[dR]G[dE]M[dN]L[dS]W[dM][dN][dE][dY][dY]G[dW]T[dM]N[dM]K[dC]G[dR]-NH2
# modifications: also: homodimer linked by BMOE, linker at 21 via BMOE, other end not in the chain
# B12: AP527d (MalPEG1) (peptide)
# peptide: Ac-[dR]G[dE]M[dN]L[dS]W[dM][dN][dE][dY][dY]G[dW]T[dM]N[dM]K[dC]G[dR]-NH2
# modifications: also: homodimer linked by MalPEG1, linker at 21 via MalPEG1, other end not in the chain
# Target: T2, Aβ42 (UniProt P05067 672-713)
# Assay: cell-based or functional assay
# T2 sequence (P05067 672-713 limits assumed): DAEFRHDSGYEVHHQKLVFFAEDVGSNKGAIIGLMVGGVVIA
Binder,"% inhibition of fibril formation (ThT), AP:Aβ42 1:1 [%]","% inhibition of fibril formation (ThT), AP:Aβ42 1:10 [%]","% inhibition of fibril formation (ThT), AP:Aβ42 1:100 [%]"
B1,69.7,0,–
B2,45.8,7.2,0
B3,100,96.2,86.4
B4,99.7,98.3,89.2
B5,100,87.3,40.3
B6,49,9,0
B7,53.5,12.1,0
B8,63.2,12.4,0
B9,54.2,14.3,0
B10,100,86.1,43.1

# Target: T2, Aβ42
# Assay: cell-based or functional assay
# Remark: another data set of the same source
row,Binder,"% Inhibition 1:10 (AP peptide:Abeta42), ThT assay [%]"
1,B3,96
2,B11,80
3,B9,14
4,B12,75

# Target: T1, islet amyloid polypeptide (IAPP)
# Assay: cell-based or functional assay
Binder,"% inhibition of IAPP amyloid formation, Ratio AP:IAPP 1:1 [%]","% inhibition of IAPP amyloid formation, Ratio AP:IAPP 4:1 [%]","% inhibition of IAPP amyloid formation, Ratio AP:IAPP 10:1 [%]"
B1,40,42,65
